According to publication PMC11983130:

Columns and labels:
SRSF1 RRM1+2 (ASF/SF2) [1] = molecular target: T1, SRSF1 RRM1+2 (ASF/SF2) (UniProt Q07955 1-196); test: competition
SRSF1 RRM1+2 (ASF/SF2) [2] = molecular target: T1, SRSF1 RRM1+2 (ASF/SF2); test: fluorescence anisotropy
SRSF1 RRM1+2 (ASF/SF2) [3] = molecular target: T1, SRSF1 RRM1+2 (ASF/SF2); test: competition; remark: listed apart in the source

T1 sequence (Q07955 1-196): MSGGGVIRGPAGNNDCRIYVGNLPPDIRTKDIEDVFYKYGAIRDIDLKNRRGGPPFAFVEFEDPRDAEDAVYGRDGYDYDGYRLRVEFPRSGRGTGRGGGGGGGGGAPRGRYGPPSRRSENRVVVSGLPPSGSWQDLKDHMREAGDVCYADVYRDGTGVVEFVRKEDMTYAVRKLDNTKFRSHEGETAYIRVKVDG

B1: (G4C2)4 unlabeled, folded without K+ (ssRNA)
RNA: GGGGCCGGGGCCGGGGCCGGGGCC
With B1 the Kd (SRSF1 RRM1+2 (ASF/SF2) [1]) was under 21 nM.

B2: SRSF1 canonical motif RNA (ssRNA)
RNA: AAAUCAGAGGAAAA
B2 gave a Kd (SRSF1 RRM1+2 (ASF/SF2) [2]) of 21 ± 3 nM.

B3: (A4U2)4 unlabeled (ssRNA)
RNA: AAAAUUAAAAUUAAAAUUAAAAUU
B3 gave a Kd (SRSF1 RRM1+2 (ASF/SF2) [3]) of about 200 nM.
